This test addresses B-cell activating factor receptor (BAFF-R) (human) (UniProt Q96RJ3). The test is described as follows: receptor occupancy in patients with CLL given VAY736 i.v. with ibrutinib (clinical study CVAY736Y2102); method not stated.

B1: ianalumab (antibody, human IgG1, kappa, V domains shown)
VH: QVQLQQSGPGLVKPSQTLSLTCAISGDSVSSNSAAWGWIRQSPGRGLEWLGRIYYRSKWYNSYAVSVKSRITINPDTSKNQFSLQLNSVTPEDTAVYYCARYDWVPKIGVFDSWGQGTLVTVSS
VL: DIVLTQSPATLSLSPGERATLSCRASQFISSSYLSWYQQKPGQAPRLLIYGSSSRATGVPARFSGSGSGTDFTLTISSLEPEDFAVYYCQQLYSSPMTFGQGTKVEIKR
Take B1: the tissue receptor occupancy is over 99%.

Values taken from patent US20230279132A1, “TREATMENT OF B CELL MALIGNANCIES” (NOVARTIS AG, priority 2020, published 2023).
